These results are taken from the supplement of paper PMC10567573.

Sequences and labels used below:
B1: TMEM106C (parent)
chain: YVTTNVSLIPPRSEQLVNFTGKAE
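Also: lentivirally expressed fusions sorted by FACS into six bins by GFP to DsRed ratio, PSI derived from sequencing read proportions per bin multiplied by bin number.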

Variants of B1 are the subject of this series. The experiment in a line: protein stability index of a GFP-peptide fusion (GPS, HEK-293T) (PSI 1-6); higher = more stable. The note with it: c terminus: a fixed tail appended.
As for YVTTNVSLIPPRREQLVNFTGKAE, the protein stability index was determined as 1.86.
As for YVTTNVSLIPPRPEQLVNFTGKAE, the protein stability index turned out to be 1.64.
On to YVTTNVSLIPPRGEQLVNFTGKAE, for which the protein stability index came out at 1.86.
The same measure for YVTTNVSLIPPRTEQLVNFTGKAE: 1.74; for YVTTNVSLIQPRSEQLVNFTGKAE: 2.26.
As for YVTTNVSLIFPRSEQLVNFTGKAE, the protein stability index amounted to 2.74.
The same measure for YVTTNVSLILPRSEQLVNFTGKAE: 1.86; for YVTTNVSLITPRSEQLVNFTGKAE: 2.42.
The same measure for YVTTNVSLIVPRSEQLVNFTGKAE: 3.38; for YVTTNVSLIAPRSEQLVNFTGKAE: 3.06; for YVTTNVSLICPRSEQLVNFTGKAE: 2.58.
Next, YVTTNVSLIMPRSEQLVNFTGKAE: 2.82.
YVTTNVSLIHPRSEQLVNFTGKAE: the protein stability index is 1.91.
With YVTTNVSLIYPRSEQLVNFTGKAE, the protein stability index is 2.88.
Next, YVTTNVSLIRPRSEQLVNFTGKAE: 3.
The same measure for YVTTNVSLIKPRSEQLVNFTGKAE: 2.45; for YVTTNVSLIGPRSEQLVNFTGKAE: 3.2; for YVTTNVSLIEPRSEQLVNFTGKAE: 1.66.
Next, YVTTNVSLINPRSEQLVNFTGKAE: 2.78.
For the variant YVTTNVSLISPRSEQLVNFTGKAE, the protein stability index came out at 1.82.
Next, YVTTNVSLIIPRSEQLVNFTGKAE: 2.65.
On to YVTTNVSLIDPRSEQLVNFTGKAE, for which the protein stability index is 1.46.
Take YVTTNVSLIWPRSEQLVNFTGKAE: the protein stability index came out at 2.56.
The same measure for YVTTDVSLIPPRSEQLVNFTGKAE: 1.96.
In the case of YVTTYVSLIPPRSEQLVNFTGKAE, the protein stability index came to 2.98.
The same measure for YVTTPVSLIPPRSEQLVNFTGKAE: 2.67; for YVTTAVSLIPPRSEQLVNFTGKAE: 1.91.
The same measure for YVTTHVSLIPPRSEQLVNFTGKAE: 1.66; for YVTTCVSLIPPRSEQLVNFTGKAE: 2.28.
As for YVTTIVSLIPPRSEQLVNFTGKAE, the protein stability index was 2.24.
For YVTTTVSLIPPRSEQLVNFTGKAE, the protein stability index came out at 2.52.
For YVTTQVSLIPPRSEQLVNFTGKAE, the protein stability index stood at 2.71.
As for YVTTFVSLIPPRSEQLVNFTGKAE, the protein stability index worked out at 2.64.
The same measure for YVTTRVSLIPPRSEQLVNFTGKAE: 2.17; for YVTTGVSLIPPRSEQLVNFTGKAE: 1.22.
YVTTEVSLIPPRSEQLVNFTGKAE: the protein stability index turned out to be 2.05.
In the case of YVTTWVSLIPPRSEQLVNFTGKAE, the protein stability index amounted to 3.52.
In the case of YVTTSVSLIPPRSEQLVNFTGKAE, the protein stability index turned out to be 1.63.
For YVTTKVSLIPPRSEQLVNFTGKAE, the protein stability index came to 2.41.
Regarding YVTTVVSLIPPRSEQLVNFTGKAE, the protein stability index is 1.69.
In the case of YVTTMVSLIPPRSEQLVNFTGKAE, the protein stability index is 2.16.
Take YVTTLVSLIPPRSEQLVNFTGKAE: the protein stability index came out at 2.32.
Turning to YVTTNVSLIPPDSEQLVNFTGKAE, the protein stability index came out at 1.92.
On to YVTTNVSLIPPWSEQLVNFTGKAE, for which the protein stability index came out at 2.19.
The same measure for YVTTNVSLIPPYSEQLVNFTGKAE: 2.39; for YVTTNVSLIPPVSEQLVNFTGKAE: 2.08.
For the variant YVTTNVSLIPPCSEQLVNFTGKAE, the protein stability index amounted to 1.86.
YVTTNVSLIPPKSEQLVNFTGKAE: the protein stability index is 1.9.
The same measure for YVTTNVSLIPPFSEQLVNFTGKAE: 2.75; for YVTTNVSLIPPLSEQLVNFTGKAE: 1.48; for YVTTNVSLIPPHSEQLVNFTGKAE: 1.85.
Next, YVTTNVSLIPPNSEQLVNFTGKAE: 1.83; YVTTNVSLIPPGSEQLVNFTGKAE: 2.49; YVTTNVSLIPPISEQLVNFTGKAE: 1.78.
On to YVTTNVSLIPPMSEQLVNFTGKAE, for which the protein stability index is 2.14.
Next, YVTTNVSLIPPTSEQLVNFTGKAE: 2.09; YVTTNVSLIPPQSEQLVNFTGKAE: 2.1.
YVTTNVSLIPPPSEQLVNFTGKAE: the protein stability index worked out at 1.86.
Turning to YVTTNVSLIPPASEQLVNFTGKAE, the protein stability index was determined as 2.85.
Next, YVTTNVSLIPPESEQLVNFTGKAE: 1.9; YVTTNVSLIPPSSEQLVNFTGKAE: 2.23.
YVTTNVSRIPPRSEQLVNFTGKAE: the protein stability index worked out at 1.6.
Regarding YVTTNVSNIPPRSEQLVNFTGKAE, the protein stability index turned out to be 1.98.
Next, YVTTNVSKIPPRSEQLVNFTGKAE: 1.71; YVTTNVSSIPPRSEQLVNFTGKAE: 2.26; YVTTNVSTIPPRSEQLVNFTGKAE: 1.95.
Next, YVTTNVSWIPPRSEQLVNFTGKAE: 2.1; YVTTNVSFIPPRSEQLVNFTGKAE: 2.54; YVTTNVSHIPPRSEQLVNFTGKAE: 2.16.
For the variant YVTTNVSYIPPRSEQLVNFTGKAE, the protein stability index is 1.86.
The same measure for YVTTNVSCIPPRSEQLVNFTGKAE: 1.66.
The same measure for YVTTNVSEIPPRSEQLVNFTGKAE: 2.61; for YVTTNVSVIPPRSEQLVNFTGKAE: 1.67; for YVTTNVSGIPPRSEQLVNFTGKAE: 2.39.
Regarding YVTTNVSIIPPRSEQLVNFTGKAE, the protein stability index was 2.04.
Consider YVTTNVSDIPPRSEQLVNFTGKAE, for which the protein stability index came out at 2.44.
As for YVTTNVSAIPPRSEQLVNFTGKAE, the protein stability index is 2.21.
In the case of YVTTNVSQIPPRSEQLVNFTGKAE, the protein stability index turned out to be 1.53.
Next, YVTTNVSPIPPRSEQLVNFTGKAE: 1.75; YVTTNVSMIPPRSEQLVNFTGKAE: 2.5; YVTNNVSLIPPRSEQLVNFTGKAE: 2.1.
On to YVTQNVSLIPPRSEQLVNFTGKAE, for which the protein stability index amounted to 2.54.
Next, YVTHNVSLIPPRSEQLVNFTGKAE: 2.07; YVTPNVSLIPPRSEQLVNFTGKAE: 2.43.
Next, YVTGNVSLIPPRSEQLVNFTGKAE: 1.89.
Take YVTWNVSLIPPRSEQLVNFTGKAE: the protein stability index is 2.85.
Next, YVTMNVSLIPPRSEQLVNFTGKAE: 2.59; YVTRNVSLIPPRSEQLVNFTGKAE: 2.23.
Regarding YVTVNVSLIPPRSEQLVNFTGKAE, the protein stability index was determined as 1.51.
The same measure for YVTSNVSLIPPRSEQLVNFTGKAE: 1.86; for YVTKNVSLIPPRSEQLVNFTGKAE: 1.77.
On to YVTLNVSLIPPRSEQLVNFTGKAE, for which the protein stability index came to 2.45.
For the variant YVTYNVSLIPPRSEQLVNFTGKAE, the protein stability index was determined as 2.24.
On to YVTINVSLIPPRSEQLVNFTGKAE, for which the protein stability index stood at 1.75.
